Test results published in FireProtDB (doi:10.1074/jbc.m110728200).

B1: Lysozyme C, P61626 (parent)
chain: MKALIVLGLVLLSVTVQGKVFERCELARTLKRLGMDGYRGISLANWMCLAKWESGYNTRATNYNAGDRSTDYGIFQINSRYWCNDGKTPGAVNACHLSCSALLQDNIADAVACAKRVVRDPQGIRAWVAWRNRCQNRDVRQYVQGCGV

Variants of: B1
Details: Homo sapiens; pH 2.63; Thermal; DSC; Gly-HCl 0.05 M; structure 1LZ1; whole UniProt chain shown

Row | Variant | Tm | unfolding enthalpy (calorimetric) | unfolding enthalpy (van 't Hoff)
1 | MKALIVLGLVLLSVTVQGKVFERCELARTLKRLGMDGYRGISLANWMCLAKWESGYNTRATNYNAGDRSTDYGIFQINSRYWCNDGKTPGAVNACHLSCSALLQDNIADAVACAKRVVRDPQGIRAWDAWRNRCQNRDVRQYVQGCGV [V128D] | 63.9 °C | 90.3 kcal/mol | 108 kcal/mol

Same assay, conditions: Homo sapiens; pH 2.7; Thermal; DSC; Gly-HCl 0.05 M; structure 1LZ1; whole UniProt chain shown

Row | Variant | Tm | change of melting temperature, mutant - wild type (higher = more stable)
2 | MKALIVLGLVLLSVTVQGKVFERCELARTLKRLGMDGYRGISLANWMCLAKWESGYNTRATNYNAGDRSTDYGIFQINSRYWCNDGKTPGAVNACHLSCSALLQDNIADAVACAKRVVRDPQGIRAWDAWRNRCQNRDVRQYVQGCGV [V128D] | 65.4 °C | 0.5 °C
3 | MKALIVLGLVLLSVTVQGKNFERCELARTLKRLGMDGYRGISLANWMCLAKWESGYNTRATNYNAGDRSTDYGIFQINSRYWCNDGKTPGAVNACHLSCSALLQDNIADAVACAKRVVRDPQGIRAWVAWRNRCQNRDVRQYVQGCGV [V20N] | 60.8 °C | -4.1 °C
4 | MKALIVLGLVLLSVTVQGKRFERCELARTLKRLGMDGYRGISLANWMCLAKWESGYNTRATNYNAGDRSTDYGIFQINSRYWCNDGKTPGAVNACHLSCSALLQDNIADAVACAKRVVRDPQGIRAWVAWRNRCQNRDVRQYVQGCGV [V20R] | 63.6 °C | -1.3 °C
5 | MKALIVLGLVLLSVTVQGKSFERCELARTLKRLGMDGYRGISLANWMCLAKWESGYNTRATNYNAGDRSTDYGIFQINSRYWCNDGKTPGAVNACHLSCSALLQDNIADAVACAKRVVRDPQGIRAWVAWRNRCQNRDVRQYVQGCGV [V20S] | 60.5 °C | -4.4 °C

Same assay, conditions: Homo sapiens; pH 2.84; Thermal; DSC; Gly-HCl 0.05 M; structure 1LZ1; whole UniProt chain shown

Row | Variant | Tm | unfolding enthalpy (calorimetric) | unfolding enthalpy (van 't Hoff)
6 | MKALIVLGLVLLSVTVQGKVFERCELARTLKRLGMDGYRGISLANWMCLAKWESGYNTRATNYNAGDRSTDYGIFQINSRYWCNDGKTPGAVNACHLSCSALLQDNIADAVACAKRVVRDPQGIRAWDAWRNRCQNRDVRQYVQGCGV [V128D] | 67.9 °C | 96.8 kcal/mol | 112 kcal/mol

Same assay, conditions: Homo sapiens; pH 3; Thermal; DSC; Gly-HCl 0.05 M; structure 1LZ1; whole UniProt chain shown

Row | Variant | Tm | unfolding enthalpy (calorimetric) | unfolding enthalpy (van 't Hoff)
7 | MKALIVLGLVLLSVTVQGKVFERCELARTLKRLGMDGYRGISLANWMCLAKWESGYNTRATNYNAGDRSTDYGIFQINSRYWCNDGKTPGAVNACHLSCSALLQDNIADAVACAKRVVRDPQGIRAWDAWRNRCQNRDVRQYVQGCGV [V128D] | 70.4 °C | 103 kcal/mol | 120 kcal/mol

Same assay, conditions: Homo sapiens; pH 3.34; Thermal; DSC; Gly-HCl 0.05 M; structure 1LZ1; whole UniProt chain shown

Row | Variant | Tm | unfolding enthalpy (calorimetric) | unfolding enthalpy (van 't Hoff)
8 | MKALIVLGLVLLSVTVQGKVFERCELARTLKRLGMDGYRGISLANWMCLAKWESGYNTRATNYNAGDRSTDYGIFQINSRYWCNDGKTPGAVNACHLSCSALLQDNIADAVACAKRVVRDPQGIRAWDAWRNRCQNRDVRQYVQGCGV [V128D] | 75.5 °C | 108 kcal/mol | 125 kcal/mol

Same assay, conditions: Homo sapiens; pH 2.6; Thermal; DSC; Gly-HCl 0.05 M; structure 1LZ1; whole UniProt chain shown

Row | Variant | Tm | unfolding enthalpy (calorimetric) | unfolding enthalpy (van 't Hoff)
9 | MKALIVLGLVLLSVTVQGKNFERCELARTLKRLGMDGYRGISLANWMCLAKWESGYNTRATNYNAGDRSTDYGIFQINSRYWCNDGKTPGAVNACHLSCSALLQDNIADAVACAKRVVRDPQGIRAWVAWRNRCQNRDVRQYVQGCGV [V20N] | 59.1 °C | 104 kcal/mol | 99.9 kcal/mol
10 | MKALIVLGLVLLSVTVQGKRFERCELARTLKRLGMDGYRGISLANWMCLAKWESGYNTRATNYNAGDRSTDYGIFQINSRYWCNDGKTPGAVNACHLSCSALLQDNIADAVACAKRVVRDPQGIRAWVAWRNRCQNRDVRQYVQGCGV [V20R] | 62.1 °C | 103 kcal/mol | 110 kcal/mol

Same assay, conditions: Homo sapiens; pH 2.7; 64.9 °C; Thermal; DSC; Gly-HCl 0.05 M; structure 1LZ1; whole UniProt chain shown

Row | Variant | ddG of mutation (higher = less stable) | heat capacity change of unfolding | unfolding enthalpy (calorimetric)
11 | MKALIVLGLVLLSVTVQGKNFERCELARTLKRLGMDGYRGISLANWMCLAKWESGYNTRATNYNAGDRSTDYGIFQINSRYWCNDGKTPGAVNACHLSCSALLQDNIADAVACAKRVVRDPQGIRAWVAWRNRCQNRDVRQYVQGCGV [V20N] | 1.34 kcal/mol | 1.7 kcal/mol/K | 114 kcal/mol
12 | MKALIVLGLVLLSVTVQGKRFERCELARTLKRLGMDGYRGISLANWMCLAKWESGYNTRATNYNAGDRSTDYGIFQINSRYWCNDGKTPGAVNACHLSCSALLQDNIADAVACAKRVVRDPQGIRAWVAWRNRCQNRDVRQYVQGCGV [V20R] | 0.38 kcal/mol | 1.41 kcal/mol/K | 106 kcal/mol
13 | MKALIVLGLVLLSVTVQGKSFERCELARTLKRLGMDGYRGISLANWMCLAKWESGYNTRATNYNAGDRSTDYGIFQINSRYWCNDGKTPGAVNACHLSCSALLQDNIADAVACAKRVVRDPQGIRAWVAWRNRCQNRDVRQYVQGCGV [V20S] | 1.41 kcal/mol | 1.55 kcal/mol/K | 111 kcal/mol

Same assay, conditions: Homo sapiens; pH 2.82; Thermal; DSC; Gly-HCl 0.05 M; structure 1LZ1; whole UniProt chain shown

Row | Variant | Tm | unfolding enthalpy (calorimetric) | unfolding enthalpy (van 't Hoff)
14 | MKALIVLGLVLLSVTVQGKNFERCELARTLKRLGMDGYRGISLANWMCLAKWESGYNTRATNYNAGDRSTDYGIFQINSRYWCNDGKTPGAVNACHLSCSALLQDNIADAVACAKRVVRDPQGIRAWVAWRNRCQNRDVRQYVQGCGV [V20N] | 62.7 °C | 110 kcal/mol | 105 kcal/mol

Same assay, conditions: Homo sapiens; pH 3.01; Thermal; DSC; Gly-HCl 0.05 M; structure 1LZ1; whole UniProt chain shown

Row | Variant | Tm | unfolding enthalpy (calorimetric) | unfolding enthalpy (van 't Hoff)
15 | MKALIVLGLVLLSVTVQGKNFERCELARTLKRLGMDGYRGISLANWMCLAKWESGYNTRATNYNAGDRSTDYGIFQINSRYWCNDGKTPGAVNACHLSCSALLQDNIADAVACAKRVVRDPQGIRAWVAWRNRCQNRDVRQYVQGCGV [V20N] | 66.3 °C | 117 kcal/mol | 111 kcal/mol

Same assay, conditions: Homo sapiens; pH 2.88; Thermal; DSC; Gly-HCl 0.05 M; structure 1LZ1; whole UniProt chain shown

Row | Variant | Tm | unfolding enthalpy (calorimetric) | unfolding enthalpy (van 't Hoff)
16 | MKALIVLGLVLLSVTVQGKRFERCELARTLKRLGMDGYRGISLANWMCLAKWESGYNTRATNYNAGDRSTDYGIFQINSRYWCNDGKTPGAVNACHLSCSALLQDNIADAVACAKRVVRDPQGIRAWVAWRNRCQNRDVRQYVQGCGV [V20R] | 66.4 °C | 108 kcal/mol | 115 kcal/mol

Same assay, conditions: Homo sapiens; pH 3.15; Thermal; DSC; Gly-HCl 0.05 M; structure 1LZ1; whole UniProt chain shown

Row | Variant | Tm | unfolding enthalpy (calorimetric) | unfolding enthalpy (van 't Hoff)
17 | MKALIVLGLVLLSVTVQGKRFERCELARTLKRLGMDGYRGISLANWMCLAKWESGYNTRATNYNAGDRSTDYGIFQINSRYWCNDGKTPGAVNACHLSCSALLQDNIADAVACAKRVVRDPQGIRAWVAWRNRCQNRDVRQYVQGCGV [V20R] | 70.7 °C | 114 kcal/mol | 123 kcal/mol

Same assay, conditions: Homo sapiens; pH 3.3; Thermal; DSC; Gly-HCl 0.05 M; structure 1LZ1; whole UniProt chain shown

Row | Variant | Tm | unfolding enthalpy (calorimetric) | unfolding enthalpy (van 't Hoff)
18 | MKALIVLGLVLLSVTVQGKRFERCELARTLKRLGMDGYRGISLANWMCLAKWESGYNTRATNYNAGDRSTDYGIFQINSRYWCNDGKTPGAVNACHLSCSALLQDNIADAVACAKRVVRDPQGIRAWVAWRNRCQNRDVRQYVQGCGV [V20R] | 74.1 °C | 120 kcal/mol | 126 kcal/mol

Same assay, conditions: Homo sapiens; pH 2.65; Thermal; DSC; Gly-HCl 0.05 M; structure 1LZ1; whole UniProt chain shown

Row | Variant | Tm | unfolding enthalpy (calorimetric) | unfolding enthalpy (van 't Hoff)
19 | MKALIVLGLVLLSVTVQGKSFERCELARTLKRLGMDGYRGISLANWMCLAKWESGYNTRATNYNAGDRSTDYGIFQINSRYWCNDGKTPGAVNACHLSCSALLQDNIADAVACAKRVVRDPQGIRAWVAWRNRCQNRDVRQYVQGCGV [V20S] | 59.4 °C | 103 kcal/mol | 103 kcal/mol

Same assay, conditions: Homo sapiens; pH 2.83; Thermal; DSC; Gly-HCl 0.05 M; structure 1LZ1; whole UniProt chain shown

Row | Variant | Tm | unfolding enthalpy (calorimetric) | unfolding enthalpy (van 't Hoff)
20 | MKALIVLGLVLLSVTVQGKSFERCELARTLKRLGMDGYRGISLANWMCLAKWESGYNTRATNYNAGDRSTDYGIFQINSRYWCNDGKTPGAVNACHLSCSALLQDNIADAVACAKRVVRDPQGIRAWVAWRNRCQNRDVRQYVQGCGV [V20S] | 62.9 °C | 108 kcal/mol | 107 kcal/mol

Same assay, conditions: Homo sapiens; pH 3.09; Thermal; DSC; Gly-HCl 0.05 M; structure 1LZ1; whole UniProt chain shown

Row | Variant | Tm | unfolding enthalpy (calorimetric) | unfolding enthalpy (van 't Hoff)
21 | MKALIVLGLVLLSVTVQGKSFERCELARTLKRLGMDGYRGISLANWMCLAKWESGYNTRATNYNAGDRSTDYGIFQINSRYWCNDGKTPGAVNACHLSCSALLQDNIADAVACAKRVVRDPQGIRAWVAWRNRCQNRDVRQYVQGCGV [V20S] | 67.1 °C | 115 kcal/mol | 114 kcal/mol

Same assay, conditions: Homo sapiens; pH 3.45; Thermal; DSC; Gly-HCl 0.05 M; structure 1LZ1; whole UniProt chain shown

Row | Variant | Tm | unfolding enthalpy (calorimetric) | unfolding enthalpy (van 't Hoff)
22 | MKALIVLGLVLLSVTVQGKSFERCELARTLKRLGMDGYRGISLANWMCLAKWESGYNTRATNYNAGDRSTDYGIFQINSRYWCNDGKTPGAVNACHLSCSALLQDNIADAVACAKRVVRDPQGIRAWVAWRNRCQNRDVRQYVQGCGV [V20S] | 73 °C | 124 kcal/mol | 126 kcal/mol
